From the nanobody polyreactivity screen of Harvey et al. (2022)

Assay: yeast display, Sf9 membrane polyspecificity reagent, FACS + sequencing; frameworks hold sequencing errors
Outline: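 Nanobodies came from a synthetic yeast display library in Saccharomyces cerevisiae BJ5465, induced with galactose for 36–48 hours and stained for 1 hour at 4 °C with 10% biotinylated, detergent-solubilized Sf9 membrane reagent. Cells were enriched on streptavidin microbeads and then FACS-sorted, with low and high (top ~1%) gates set on anti-HA fluorescence for expression and streptavidin fluorescence for reagent binding. Each polyreactivity label reflects the gate a clone came from. Genes were amplified by colony PCR, sequenced by MiSeq 2 × 250 and filtered by CDR length.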

QVQLVESGGGLVQAGGSLRLSCAASGFIFYKNAMGLYRQAPGKERELVAAISRRGSSTYYADSVKGRFTISRDNAKNTVYLQMNSLKPEDTAVYYCAARFTRRDYWGQGTQVTVSS
polyreactivity (PSR sort gate): high polyreactivity

QVQLVESGGGLVQAGGSLRLSCAASGFIFYKYAMGWYRQAPGKERELVAAITRSGGSTYYADSVKGRFTISRDNAKNTVYLQMNSLKPEDTAVYYCAKRSYRARDAVPGGFDSWGQGTQVTVSS
polyreactivity (PSR sort gate): high polyreactivity

QVQLVESGGGLVQAGGSLRLSCAASGFIFYLYAMGWYRQAPGKERELVAAIDSGDDTDYADSVKGRFTISRDNAKNTVYLQMNSLKPEDTAVYYCAAGAYWPWGEDYWGQGTQVTVSS
polyreactivity (PSR sort gate): high polyreactivity

QVQLVESGGGLVQAGGSLRLSCAASGFIFYLYAMGWYRQAPGKERELVAAISWDGGSTYYADSVKGRFTISRDNAKNTVYLQMNSLKPEDTAVYYCAADREFWWEVVYTYEYYYWGQGTQVTVSS
polyreactivity (PSR sort gate): low polyreactivity

QVQLVESGGGLVQAGGSLRLSCAASGFIFYNYALGWYRQAPGKERELVAAISASGGRSYYADSVKGRFTISRDNAKNTVYLQMNRLKPEDTAVYYCNARVNYKGYDYWGQGTQVTVSS
polyreactivity (PSR sort gate): high polyreactivity

QVQLVESGGGLVQAGGSLRLSCAASGFIFYNYAMGWYRQAPGKERELVAAITGGGSTNYADSVKGRLTISRDNPKNTVYLQMNSLKPEDTAVYYCAAEEGPPWSRYDYWGQGTQVTVSS
polyreactivity (PSR sort gate): low polyreactivity

QVQLVESGGGLVQAGGSLRLSCAASGFIFYPYAMGWYRQAPGKERELVAVIRWSGGRTYYADSVKGRFTISRDNAKNTVYLQMNSLKPEDTSVYYCNARKITRYAVGPRKLGDYWGQGTQVTVTS
polyreactivity (PSR sort gate): high polyreactivity

QVQLVESGGGLVQAGGSLRLSCAASGFIFYRNALGWYRQAPGKERELVAVIRWSGTSTSYADSVKGRFTISRDNAKNTVYLQMNSLKPEDTAVYYCNAAWYDLYGDSDGDDYWGQGTQVTVSS
polyreactivity (PSR sort gate): low polyreactivity

QVQLVESGGGLVQAGGSLRLSCAASGFIFYRNAMGWYRQAPGKERELVAAISKSGGITYYADSVKGRFTISRDNAKNTVYLQMNSLKPEDTAVYYCAKASQNGYDYWGQGTQVTVSS
polyreactivity (PSR sort gate): high polyreactivity

QVQLVESGGGLVQAGGSLRLSCAASGFIFYRYAIGWYIQAPGKEREFVASISGSGGRTYYADSVKGRFTISRDNAKNTVYLQMNTLKPEDTAGYYCAADRYSAYLYWDEYWGQGTQVTVSS
polyreactivity (PSR sort gate): high polyreactivity

QVQLVESGGGLVQAGGSLRLSCAASGFIFYRYAMGRYRQAPGKERELVAAISWYGGTTYYADSVKGRFTISRDNAKNTVYLQMNSLKPEDTAVYYCAASRLRTEYYWGQGTQVTVSS
polyreactivity (PSR sort gate): high polyreactivity

QVQLVESGGGLVQAGGSLRLSCAASGFIFYRYAMGWSRQAPGKERELVAAISWGGGSTTYYADSVKGRFTISRDNAKNTVYLQMNSLKPEDTAVYYCAAYIGKGYGSEYYYWGQGTQVTVSS
polyreactivity (PSR sort gate): low polyreactivity

QVQLVESGGGLVQAGGSLRLSCAASGFIFYRYAMGWYRQAPGKERELVAAISRSGGSTYYADSVKGRFTISRDNAKNTVYLQMNSLKPEDTAVYYCAADRGSLAPGNDYWGQGTQVTVSS
polyreactivity (PSR sort gate): high polyreactivity

QVQLVESGGGLVQAGGSLRLSCAASGFIFYRYAMGWYRQAPGKERELVAAISSSGGSTYYADSVKGRFTISRDNAKNTVYFQMNSLKPEDTAVYYCNKRPQQYRPGYDYWGQGTQVTVSS
polyreactivity (PSR sort gate): high polyreactivity

QVQLVESGGGLVQAGGSLRLSCAASGFIFYRYAMGWYRQAPGKERELVAAITSSGGSTYYADSVKGRFTISRDNAKNTVYLQMNSLKPEDTAVYYCAARYTTSRYGYWGQGTQVTVSS
polyreactivity (PSR sort gate): high polyreactivity

QVQLVESGGGLVQAGGSLRLSCAASGFIFYRYAMGWYRQAPGKERELVATIRYSGGSTYYADSVKGRFTISRDNAKNTVYLQMNSLKPEDTAVYYCNARRWYLPRRLYDYWGQGTQVTVSS
polyreactivity (PSR sort gate): high polyreactivity

QVQLVESGGGLVQAGGSLRLSCAASGFIFYRYAMGWYRQAPGKERELVATISWSGGRTYYADSVKGRFTISRDNAKNTVYLQMNSLKPEDTAVYYCNAVNTHDYGYWGQGTQVTVSS
polyreactivity (PSR sort gate): low polyreactivity
